Tests used:
[1] = target: L-SIGN expressed on K562 cells (human) (UniProt Q9H2X3); assay: flow cytometry on K562/L-SIGN cells
[2] = target: recombinant human L-SIGN (human) (UniProt Q9H2X3); assay: ELISA on recombinant L-SIGN
[3] = target: recombinant human DC-SIGN (human) (UniProt Q9NNX6); assay: ELISA on recombinant DC-SIGN
Sequence of UniProt Q9NNX6 (Q9NNX6 59-404 limits assumed): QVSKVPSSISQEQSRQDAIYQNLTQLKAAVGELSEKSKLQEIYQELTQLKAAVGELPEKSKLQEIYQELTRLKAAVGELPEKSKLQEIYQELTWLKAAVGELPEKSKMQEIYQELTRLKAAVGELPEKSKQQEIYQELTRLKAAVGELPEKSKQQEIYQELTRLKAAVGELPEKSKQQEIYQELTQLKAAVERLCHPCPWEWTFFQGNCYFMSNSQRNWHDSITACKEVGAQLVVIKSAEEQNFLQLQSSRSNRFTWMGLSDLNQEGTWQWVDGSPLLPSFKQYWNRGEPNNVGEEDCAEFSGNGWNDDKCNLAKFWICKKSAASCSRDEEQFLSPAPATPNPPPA

Geo. Mean Flourecence [1]: 21.3 | OD405 [2]: 2.9 OD405 | OD405 [3]: 0.1 OD405
B1: additional IgG1k antibody clone A10 (antibody, from a related filing, V domains shown)
VH: EVQLQQSGPELEKPGASVKISCKASGYSFTGYNMNWVKQSNGKSLEWIGNIDPYYGDITYNQKFKGKATLTVDKSSSTAYMQLKSLTSEDSAVYYCARTATALYTMDYWGQGTSVTVSS
VL: EIVLTQSPAIMSASLGERVTMTCTASSSVSSSYLHWYQQKPGSSPKLWIYSTSNLASGVPARFSGSGSGTSYSLTISSMEAEDAATYYCHQYHRSPQTFGGGTKLEIK
